# In WO2015050959A1 (dated 2015):
# B1: Fab79D (Fab)
# heavy: EVQLVESGGGLVQPGGSLRLSCAASGFNISVYMMHWVRQAPGKGLEWVASIYPYSGYTYYADSVKGRFTISADTSKNTAYLQMNSLRAEDTAVYYCARYVYHALDYWGQGTLVTVSSASTKGPSVFPLAPSSKSTSGGTAALGCLVKDYFPEPVTVSWNSGALTSGVHTFPAVLQSSGLYSLSSVVTVPSSSLGTQTYICNVNHKPSNTKVDKKVEPKSC
# light: DIQMTQSPSSLSASVGDRVTITCRASQRGLRNVAVAWYQQKPGKAPKLLIYSASSLYSGVPSRFSGSRSGTDFTLTISSLQPEDFATYYCQQWAVHSLITFGQGTKVEIKRTVAAPSVFIFPPSDSQLKSGTASVVCLLNNFYPREAKVQWKVDNALQSGNSQESVTEQDSKDSTYSLSSTLTLSKADYEKHKVYACEVTHQGLSSPVTKSFNRGECGGSDYKDDDDK
# notes: Made in E. coli; also called last generation Fab; KIT79D (Fab)
# B2: IgG 79D (antibody, V domains shown)
# VH: EVQLVESGGGLVQPGGSLRLSCAASGFNISVYMMHWVRQAPGKGLEWVASIYPYSGYTYYADSVKGRFTISADTSKNTAYLQMNSLRAEDTAVYYCARYVYHALDYWGQGTLVTVSS
# VL: DIQMTQSPSSLSASVGDRVTITCRASQRGLRNVAVAWYQQKPGKAPKLLIYSASSLYSGVPSRFSGSRSGTDFTLTISSLQPEDFATYYCQQWAVHSLITFGQGTKVEIKR
# B3: Fab19 (Fab)
# VH: EVQLVESGGGLVQPGGSLRLSCAASGFNISSYSMHWVRQAPGKGLEWVASIYPYSGYTYYADSVKGRFTISADTSKNTAYLQMNSLRAEDTAVYYCARYVYHALDYWGQGTLVTVSS
# light: DIQMTQSPSSLSASVGDRVTITCRASQSVSSAVAWYQQKPGKAPKLLIYSASSLYSGVPSRFSGSRSGTDFTLTISSLQPEDFATYYCQQWAVHSLITFGQGTKVEIKRTVAAPSVFIFPPSDSQLKSGTASVVCLLNNFYPREAKVQWKVDNALQSGNSQESVTEQDSKDSTYSLSSTLTLSKADYEKHKVYACEVTHQGLSSPVTKSFNRGECGGSDYKDDDDK
# notes: Human synthetic Fab from phage library F, made in E. coli; Light chain carries a C-terminal Flag-tag; also called parental synthetic Fab; anti-D4 Fab
# Tests used:
# [1] = target: T1, Soluble KITD4-5 fragment (amino acids 308-514) (human, UniProt P10721 308-514, glycosylated Asn320 (partial deglycosylation with endoglycosidase F1)); assay: SPR (Biacore T100, 25 C), KITD4-5 amine-coupled to a CM5 chip, Fab as analyte, long dissociation time, 1:1 Langmuir fit
# T1 construct: range 308-514; Expressed in Sf9 insect cells with an N-terminal His-tag and a TEV site; also called KITm-5; KITm-s
# [2] = target: Wild type KIT expressed on cells (UniProt P10721 26-976, limits assumed); assay: cell-based or functional assay
# [3] = target: T1, Soluble KITD4-5 fragment (amino acids …); assay: SPR (Biacore T100, 25 C), KITD4-5 amine-coupled to a CM5 chip, Fab as analyte 0.12-10 nM, 1:1 Langmuir fit
Binder,Kd [1] [nM],"concentration at which KIT autophosphorylation was inhibited (NIH-3T3 cells expressing wt KIT, SCF stimulation) [2] [nM]",Kd [3] [nM]
B1,0.0064,,
B2,,1,
B3,,50,0.63
